Experiment [1] addresses acetylcholine-binding protein from Aplysia californica (Ac-AChBP) (Aplysia californica). Description: non-reduced SDS-PAGE.
Experiment [2] shares this target. Description: SEC; […]; 50 mM NaCl, 50 mM Tris pH 8.0, 0.5 mL/min, […]. (In gel filtration, larger molecules generally elute earlier.)

These results are taken from publication PMC4127255.

For orientation: stoichiometry N means a count of units in the complex or per binding partner. Take “acetylcholine-binding protein from Aplysia californica (Ac-AChBP) (natural protein)”: the stoichiometry N in experiment [1] and in experiment [2] was 5 each time.
